Results from patent US12679878B2, “CRF2 receptor agonists and their use in therapy” (SANOFI, priority 2020, dated 2026).
Starred links: 1 amine or outer side, 2 acyl side, 3 side chain; linkers in the order of their positions; H or OH if unused. Non-standard residues stand in square brackets, D forms with d. Groups on a side chain read outwards from the residue. No end group written: not given here. *: point of attachment. C18 diacid = O=C(O)CCCCCCCCCCCCCCCCC(=O)*; γGlu = O=C(O)[C@H](CCC(=O)[*:2])N[*:1]; Palmitoyl = CCCCCCCCCCCCCCCC(=O)*; AEEA = NCCOCCOCC(=O)O; Aib = CC(C)(N)C(=O)O

T1: anti-target CRF1R receptor (UniProt P34998 24-415, limits assumed)
T1 sequence (looked up): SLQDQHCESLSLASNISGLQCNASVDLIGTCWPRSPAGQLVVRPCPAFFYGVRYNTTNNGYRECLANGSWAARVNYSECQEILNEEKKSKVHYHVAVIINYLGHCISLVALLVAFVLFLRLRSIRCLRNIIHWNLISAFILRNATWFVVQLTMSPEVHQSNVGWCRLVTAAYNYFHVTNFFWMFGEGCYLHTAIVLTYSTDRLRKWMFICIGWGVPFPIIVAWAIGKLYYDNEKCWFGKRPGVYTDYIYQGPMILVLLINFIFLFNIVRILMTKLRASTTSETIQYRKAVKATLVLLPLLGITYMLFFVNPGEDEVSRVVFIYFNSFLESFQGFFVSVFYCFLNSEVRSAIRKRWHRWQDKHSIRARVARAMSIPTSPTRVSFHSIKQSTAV


What was measured:
[1] = biological target: T1, anti-target CRF1R receptor; assay: cell-based or functional assay
[2] = biological target: rat CRF2R α receptor (rat, UniProt P47866 20-411); assay: cell-based or functional assay
Sequence of rat CRF2R α receptor (P47866 20-411): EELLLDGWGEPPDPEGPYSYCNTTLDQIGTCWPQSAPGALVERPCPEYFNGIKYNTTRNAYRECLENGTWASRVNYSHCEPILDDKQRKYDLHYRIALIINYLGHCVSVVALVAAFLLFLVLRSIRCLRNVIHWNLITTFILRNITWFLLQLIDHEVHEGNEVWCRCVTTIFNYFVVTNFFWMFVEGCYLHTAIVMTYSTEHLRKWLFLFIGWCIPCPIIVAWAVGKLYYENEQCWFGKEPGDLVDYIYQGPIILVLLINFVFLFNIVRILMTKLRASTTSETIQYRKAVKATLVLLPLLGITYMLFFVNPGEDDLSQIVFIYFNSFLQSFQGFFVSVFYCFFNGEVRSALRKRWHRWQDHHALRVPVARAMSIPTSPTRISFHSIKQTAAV

EC50[nM] 0% HSA (cAMP, CRF1R-overexpression CHO cells) [1] [nM]	Emax (%) (cAMP, CRF1R-overexpression CHO cells) [1]	EC50 [nM], 0% HSA (cAMP, A7R5 cells) [2] [nM]	Binder
> 1000	1.48	4.94	IVLSLD[dV]PTKLK([AEEA-AEEA-γGlu-C18 diacid])QKLLKQERQRKEREQAEKNKRILERV-NH2 (N-terminus assumed; SMILES CC[C@H](C)[C@H](N)C(=O)N[C@H](C(=O)N[C@@H](CC(C)C)C(=O)N[C@@H](CO)C(=O)N[C@@H](CC(C)C)C(=O)N[C@@H](CC(=O)O)C(=O)N[C@@H](C(=O)N1CCC[C@H]1C(=O)N[C@H](C(=O)N[C@@H](CCCCN)C(=O)N[C@@H](CC(C)C)C(=O)N[C@@H](CCCCNC(=O)COCCOCCNC(=O)COCCOCCNC(=O)CC[C@H](NC(=O)CCCCCCCCCCCCCCCCC(=O)O)C(=O)O)C(=O)N[C@@H](CCC(N)=O)C(=O)N[C@@H](CCCCN)C(=O)N[C@@H](CC(C)C)C(=O)N[C@@H](CC(C)C)C(=O)N[C@@H](CCCCN)C(=O)N[C@@H](CCC(N)=O)C(=O)N[C@@H](CCC(=O)O)C(=O)N[C@@H](CCCNC(=N)N)C(=O)N[C@@H](CCC(N)=O)C(=O)N[C@@H](CCCNC(=N)N)C(=O)N[C@@H](CCCCN)C(=O)N[C@@H](CCC(=O)O)C(=O)N[C@@H](CCCNC(=N)N)C(=O)N[C@@H](CCC(=O)O)C(=O)N[C@@H](CCC(N)=O)C(=O)N[C@@H](C)C(=O)N[C@@H](CCC(=O)O)C(=O)N[C@@H](CCCCN)C(=O)N[C@@H](CC(N)=O)C(=O)N[C@@H](CCCCN)C(=O)N[C@@H](CCCNC(=N)N)C(=O)N[C@H](C(=O)N[C@@H](CC(C)C)C(=O)N[C@@H](CCC(=O)O)C(=O)N[C@@H](CCCNC(=N)N)C(=O)N[C@H](C(N)=O)C(C)C)[C@@H](C)CC)[C@@H](C)O)C(C)C)C(C)C) [peptide of SEQ ID NO: 24]
> 1000	5.3	0.76	FTLSLDVPTKIK([AEEA-AEEA-γGlu-C18 diacid])QILLKQQKQKKERQQAEKNKQLLERV-NH2 (N-terminus assumed; SMILES CC[C@H](C)[C@H](NC(=O)[C@H](CCC(N)=O)NC(=O)[C@H](CCCCNC(=O)COCCOCCNC(=O)COCCOCCNC(=O)CC[C@H](NC(=O)CCCCCCCCCCCCCCCCC(=O)O)C(=O)O)NC(=O)[C@@H](NC(=O)[C@H](CCCCN)NC(=O)[C@@H](NC(=O)[C@@H]1CCCN1C(=O)[C@@H](NC(=O)[C@H](CC(=O)O)NC(=O)[C@H](CC(C)C)NC(=O)[C@H](CO)NC(=O)[C@H](CC(C)C)NC(=O)[C@@H](NC(=O)[C@@H](N)Cc1ccccc1)[C@@H](C)O)C(C)C)[C@@H](C)O)[C@@H](C)CC)C(=O)N[C@@H](CC(C)C)C(=O)N[C@@H](CC(C)C)C(=O)N[C@@H](CCCCN)C(=O)N[C@@H](CCC(N)=O)C(=O)N[C@@H](CCC(N)=O)C(=O)N[C@@H](CCCCN)C(=O)N[C@@H](CCC(N)=O)C(=O)N[C@@H](CCCCN)C(=O)N[C@@H](CCCCN)C(=O)N[C@@H](CCC(=O)O)C(=O)N[C@@H](CCCNC(=N)N)C(=O)N[C@@H](CCC(N)=O)C(=O)N[C@@H](CCC(N)=O)C(=O)N[C@@H](C)C(=O)N[C@@H](CCC(=O)O)C(=O)N[C@@H](CCCCN)C(=O)N[C@@H](CC(N)=O)C(=O)N[C@@H](CCCCN)C(=O)N[C@@H](CCC(N)=O)C(=O)N[C@@H](CC(C)C)C(=O)N[C@@H](CC(C)C)C(=O)N[C@@H](CCC(=O)O)C(=O)N[C@@H](CCCNC(=N)N)C(=O)N[C@H](C(N)=O)C(C)C) [peptide of SEQ ID NO: 52]
> 1000	5.88	8.97	IVLSLDVPIKLK([AEEA-AEEA-γGlu-C18 diacid])QILLEQAKQK[Aib]LRAQAETNVRILERV-NH2 (N-terminus assumed; SMILES CC[C@H](C)[C@H](N)C(=O)N[C@H](C(=O)N[C@@H](CC(C)C)C(=O)N[C@@H](CO)C(=O)N[C@@H](CC(C)C)C(=O)N[C@@H](CC(=O)O)C(=O)N[C@H](C(=O)N1CCC[C@H]1C(=O)N[C@H](C(=O)N[C@@H](CCCCN)C(=O)N[C@@H](CC(C)C)C(=O)N[C@@H](CCCCNC(=O)COCCOCCNC(=O)COCCOCCNC(=O)CC[C@H](NC(=O)CCCCCCCCCCCCCCCCC(=O)O)C(=O)O)C(=O)N[C@@H](CCC(N)=O)C(=O)N[C@H](C(=O)N[C@@H](CC(C)C)C(=O)N[C@@H](CC(C)C)C(=O)N[C@@H](CCC(=O)O)C(=O)N[C@@H](CCC(N)=O)C(=O)N[C@@H](C)C(=O)N[C@@H](CCCCN)C(=O)N[C@@H](CCC(N)=O)C(=O)N[C@@H](CCCCN)C(=O)NC(C)(C)C(=O)N[C@@H](CC(C)C)C(=O)N[C@@H](CCCNC(=N)N)C(=O)N[C@@H](C)C(=O)N[C@@H](CCC(N)=O)C(=O)N[C@@H](C)C(=O)N[C@@H](CCC(=O)O)C(=O)N[C@H](C(=O)N[C@@H](CC(N)=O)C(=O)N[C@H](C(=O)N[C@@H](CCCNC(=N)N)C(=O)N[C@H](C(=O)N[C@@H](CC(C)C)C(=O)N[C@@H](CCC(=O)O)C(=O)N[C@@H](CCCNC(=N)N)C(=O)N[C@H](C(N)=O)C(C)C)[C@@H](C)CC)C(C)C)[C@@H](C)O)[C@@H](C)CC)[C@@H](C)CC)C(C)C)C(C)C) [peptide of SEQ ID NO: 46]
> 1000	7.75	1.38	FTLSLDVPTKIK([γGlu-Palmitoyl])QKLFKQAKQKKQRQKAKTNAQILARV-NH2 (N-terminus assumed; SMILES CCCCCCCCCCCCCCCC(=O)N[C@@H](CCC(=O)NCCCC[C@H](NC(=O)[C@@H](NC(=O)[C@H](CCCCN)NC(=O)[C@@H](NC(=O)[C@@H]1CCCN1C(=O)[C@@H](NC(=O)[C@H](CC(=O)O)NC(=O)[C@H](CC(C)C)NC(=O)[C@H](CO)NC(=O)[C@H](CC(C)C)NC(=O)[C@@H](NC(=O)[C@@H](N)Cc1ccccc1)[C@@H](C)O)C(C)C)[C@@H](C)O)[C@@H](C)CC)C(=O)N[C@@H](CCC(N)=O)C(=O)N[C@@H](CCCCN)C(=O)N[C@@H](CC(C)C)C(=O)N[C@@H](Cc1ccccc1)C(=O)N[C@@H](CCCCN)C(=O)N[C@@H](CCC(N)=O)C(=O)N[C@@H](C)C(=O)N[C@@H](CCCCN)C(=O)N[C@@H](CCC(N)=O)C(=O)N[C@@H](CCCCN)C(=O)N[C@@H](CCCCN)C(=O)N[C@@H](CCC(N)=O)C(=O)N[C@@H](CCCNC(=N)N)C(=O)N[C@@H](CCC(N)=O)C(=O)N[C@@H](CCCCN)C(=O)N[C@@H](C)C(=O)N[C@@H](CCCCN)C(=O)N[C@H](C(=O)N[C@@H](CC(N)=O)C(=O)N[C@@H](C)C(=O)N[C@@H](CCC(N)=O)C(=O)N[C@H](C(=O)N[C@@H](CC(C)C)C(=O)N[C@@H](C)C(=O)N[C@@H](CCCNC(=N)N)C(=O)N[C@H](C(N)=O)C(C)C)[C@@H](C)CC)[C@@H](C)O)C(=O)O) [peptide of SEQ ID NO: 15]
> 1000	13.3	2.04	IVLSLDVPIKLK([AEEA-AEEA-γGlu-C18 diacid])QILLEQERQRKERQQAETNAQILAQV-NH2 (N-terminus assumed; SMILES CC[C@H](C)[C@H](N)C(=O)N[C@H](C(=O)N[C@@H](CC(C)C)C(=O)N[C@@H](CO)C(=O)N[C@@H](CC(C)C)C(=O)N[C@@H](CC(=O)O)C(=O)N[C@H](C(=O)N1CCC[C@H]1C(=O)N[C@H](C(=O)N[C@@H](CCCCN)C(=O)N[C@@H](CC(C)C)C(=O)N[C@@H](CCCCNC(=O)COCCOCCNC(=O)COCCOCCNC(=O)CC[C@H](NC(=O)CCCCCCCCCCCCCCCCC(=O)O)C(=O)O)C(=O)N[C@@H](CCC(N)=O)C(=O)N[C@H](C(=O)N[C@@H](CC(C)C)C(=O)N[C@@H](CC(C)C)C(=O)N[C@@H](CCC(=O)O)C(=O)N[C@@H](CCC(N)=O)C(=O)N[C@@H](CCC(=O)O)C(=O)N[C@@H](CCCNC(=N)N)C(=O)N[C@@H](CCC(N)=O)C(=O)N[C@@H](CCCNC(=N)N)C(=O)N[C@@H](CCCCN)C(=O)N[C@@H](CCC(=O)O)C(=O)N[C@@H](CCCNC(=N)N)C(=O)N[C@@H](CCC(N)=O)C(=O)N[C@@H](CCC(N)=O)C(=O)N[C@@H](C)C(=O)N[C@@H](CCC(=O)O)C(=O)N[C@H](C(=O)N[C@@H](CC(N)=O)C(=O)N[C@@H](C)C(=O)N[C@@H](CCC(N)=O)C(=O)N[C@H](C(=O)N[C@@H](CC(C)C)C(=O)N[C@@H](C)C(=O)N[C@@H](CCC(N)=O)C(=O)N[C@H](C(N)=O)C(C)C)[C@@H](C)CC)[C@@H](C)O)[C@@H](C)CC)[C@@H](C)CC)C(C)C)C(C)C) [peptide of SEQ ID NO: 39]
